Laboratory results reported in patent US8063181B2, “Method for the production of cyclic molecules” (ZYRUS Beteiligungsgesellschaft mbH & Co. Patent I KG, priority 2003, dated 2011).

B1: surfactin-peptide cyclase (Bacillus subtilis subsp. subtilis str. 168) (protein)
chain: QIIFAFPPVLGYGLMYQNLSSRLPSYKLCAFDFIEEEDRLDRYADLIQKLQPEGPLTLFGYSAGCSLAFEAAKKLEEQGRIVQRIIMVDSYKKQGVSDLDGRTVESDVEALMNVNRDNEALNSEAVKHGLKQKTHAFYSYYVNLISTGQVKADIDLLTSGADFDMPEWLASWEEATTGVYRVKRGFGTHAEMLQGETLDRNAEILLEFLNTQT
notes: purified, isolated thioesterase domains or peptide cyclases from NRPS or PKS systems
B2: recombinated fengycin-peptide cyclase (Bacillus subtilis subsp. subtilis str. 168) (protein)
chain: QNLFCFPPISGFGIYFKDLALLLNEKAAVYGFHFIEQDTRIEQYVNCMTDIQPEGPYVLLGYSAGGNLAFEVAQAMERKGLEVSDFIIVDAYLKEQPLPIDTGNDESAAYLPEAVREKVMKKKRNYQEYWAQLLNEGHIKASIHFIEAGIHPETSGHTGLTKWEGACGNYSEYTGFGAHKDMLEGTYAEKNADIILDILEKITSNQ
notes: recombinant fengycin TE

What was measured:
[1] = substrate: CC(C)C[C@H](NC(=O)[C@@H](CC(=O)O)NC(=O)[C@H](NC(=O)[C@H](CN)NC(=O)[C@@H](CC(C)C)NC(=O)[C@@H](CCC(=O)O)NC(=O)CC(C)O)C(C)C)C(=O)N[C@H](CC(C)C)C(=O)Sc1ccccc1; assay: cyclization kinetics with surfactin-peptide cyclase; assay type: biochemical; settings: other: cyclization reaction; pH 7.0; 40.0 °C
Protocol: […] The production of the HEPES solution is known to persons skilled in the art and was described in J. Sambrook, E. F. Fritsch and T. Maniatis: Molecular Cloning: A Laboratory Manual Vol. I-III, Cold Spring Harbor Laboratory Press, 1982. The identification and quantification of the reaction product is carried out by means of analytical HPLC.
With this measurement, the linear range for further kinetic studies is determined. The reactions are stopped by the addition of 35 μL TFA (4% in water) and examined by analytic HPLC with a Nucleodur C18 column (Macherey and Nagel, 250/3, pore diameter: 100 Å, particle size: 3 μm) with the following gradient: 0-35 min, 30-60% acetonitrile/0.1% TFA in water/0.1% TFA; 0.4 mL/min, 40° C. Kinetic examinations are carried out at different points in time at substrate concentrations of 50 μM up to 1000 μm and the kinetic parameters KM and kcat are taken from the Lineweaver-Burk plot. For fengycin-thiophenol, a KM of 461 μm and a kcat of 0.33 min^−1 result from the cyclization reaction.
In the case of surfactin-peptide cyclase, kinetic reference data with a SNAC-substrate exists. In the case of surfactin-thiophenol, a KM of 126 μm and a kcat of 5.6 min^−1 are determined for the cyclization reaction, which corresponds to a kcat/KM value of 0.04 μm^−1 min^−1. Compared with that is the kinetic efficiency of surfactin-SNAC, represented by the kcat/KM value 0.0029 μm^−1 min^−1, 14 times less than with surfactin-thiophenol.

[2] = substrate: CCC(C)[C@H](NC(=O)[C@H](Cc1ccc(O)cc1)NC(=O)[C@@H](CCC(N)=O)NC(=O)[C@@H]1CCCN1C(=O)[C@@H](C)NC(=O)[C@@H](CCC(=O)O)NC(=O)[C@H](NC(=O)[C@H](Cc1ccc(O)cc1)NC(=O)[C@H](CCCN)NC(=O)[C@H](CCC(=O)O)NC(C)=O)C(C)O)C(=O)Sc1ccccc1; assay: cyclization kinetics with fengycin-peptide cyclase; assay type: biochemical; settings: other: cyclization reaction, Lineweaver-Burk plot, 25 mM HEPES, 50 mM NaCl, pH 7, room temperature
Protocol: The purified substrate with the leaving group according to the present invention is then incubated with the respective peptide cyclase in the ratio of 1 (enzyme): 100 (substrate) in 25 mM HEPES, 50 mM NaCl at pH 7 and room temperature for 30-60 minutes. The production of the HEPES solution is known to persons skilled in the art and was described in J. Sambrook, E. F. Fritsch and T. Maniatis: Molecular Cloning: A Laboratory Manual Vol. I-III, Cold Spring Harbor Laboratory Press, 1982. The identification and quantification of the reaction product is carried out by means of analytical HPLC.
The cyclization of the linear fengycin-thiophenol substrate is carried out in an aqueous cyclization buffer comprised of 2-[4-(2-hydroxyethyl)-1-piperazinyl]-ethane sulfonic acid (HEPES, 25 mM) and sodium chloride (NaCl, 50 mM) at pH 7 in a total volume of 50 μL. The substrate concentration is 100 μM for standard cyclization reactions. The cyclization reaction is initiated by the addition of recombinant fengycin TE at an end concentration of 5 μM and stopped by the addition of 35 μL of 4% trifluoroacetic acid (TFA) in water after 4 hours. […]
With this measurement, the linear range for further kinetic studies is determined. […]

Row | Protein | Km [1] | kcat [1] | kcat/Km [1] | Km [2] | kcat [2]
1 | B1 | 126 µM | 0.0933 s⁻¹ | 0.04 μm^−1 min^−1 | – | –
2 | B2 | – | – | – | 461 µM | 0.0055 s⁻¹
